Experimental data taken from patent publication US20060257938A1, “Method of screening for drugs that block ligand binding to a lipid binding protein” (priority 2005, published 2006).
Substitutions are numbered along the chain they refer to. Where “and” joins values, the source holds several entries; their conditions need not be identical. Equal values may be shown once.

B1: 115K3, 72A (protein, listed as Rattus norvegicus)
chain: AFDGTWKVDRNENYEKFMEKMGINVVKRKLGAHDNLKLTITQEGNKFTVKESSNFRNIDVVFELGVDFAYSAADGTELTGTWTMEGNKLVGKFKRVDNGKELIAVREISGNELIKTYTYEGVEAKRIFKKE
modifications: PEPTIDE (1)...(131) wild-type rat intestinal fatty acid binding protein
B2: 115P1, 72A (protein, listed as Rattus norvegicus)
chain: B1 chain with K115P
modifications: PEPTIDE (1)...(131) wild-type rat intestinal fatty acid binding protein
B3: 117D, 72A (protein, listed as Rattus norvegicus)
chain: B1 chain with K115Q, Y117D
modifications: PEPTIDE (1)...(131) wild-type rat intestinal fatty acid binding protein
B4: 115R1, 72A (protein, listed as Rattus norvegicus)
chain: B1 chain with K115R
modifications: PEPTIDE (1)...(131) wild-type rat intestinal fatty acid binding protein
B5: 78F, 72A (protein, listed as Rattus norvegicus)
chain: B1 chain with L78F, K115Q
modifications: PEPTIDE (1)...(131) wild-type rat intestinal fatty acid binding protein
B6: 115Y1, 72A (protein, listed as Rattus norvegicus)
chain: B1 chain with K115Y
modifications: PEPTIDE (1)...(131) wild-type rat intestinal fatty acid binding protein
B7: 102C, 72A (protein, listed as Rattus norvegicus)
chain: B1 chain with L102C, K115Q
modifications: PEPTIDE (1)...(131) wild-type rat intestinal fatty acid binding protein
B8: 62P, 72A (protein, listed as Rattus norvegicus)
chain: B1 chain with F62P, K115Q
modifications: PEPTIDE (1)...(131) wild-type rat intestinal fatty acid binding protein
B9: 117C, 72A (protein, listed as Rattus norvegicus)
chain: B1 chain with K115Q, Y117C
modifications: PEPTIDE (1)...(131) wild-type rat intestinal fatty acid binding protein
B10: 38T, 72A (protein, listed as Rattus norvegicus)
chain: B1 chain with L38T, K115Q
modifications: PEPTIDE (1)...(131) wild-type rat intestinal fatty acid binding protein
B11: 115L3, 72A (protein, listed as Rattus norvegicus)
chain: B1 chain with K115L
modifications: PEPTIDE (1)...(131) wild-type rat intestinal fatty acid binding protein
B12: 115S1, 72A (protein, listed as Rattus norvegicus)
chain: B1 chain with K115S
modifications: PEPTIDE (1)...(131) wild-type rat intestinal fatty acid binding protein
B13: 115N2, 72A (protein, listed as Rattus norvegicus)
chain: B1 chain with K115N
modifications: PEPTIDE (1)...(131) wild-type rat intestinal fatty acid binding protein
B14: 115V2, 72A (protein, listed as Rattus norvegicus)
chain: B1 chain with K115V
modifications: PEPTIDE (1)...(131) wild-type rat intestinal fatty acid binding protein
B15: 117A, 72A (protein, listed as Rattus norvegicus)
chain: B1 chain with K115Q, Y117A
modifications: PEPTIDE (1)...(131) wild-type rat intestinal fatty acid binding protein
B16: 31Q, 72A (protein, listed as Rattus norvegicus)
chain: B1 chain with G31Q, K115Q
modifications: PEPTIDE (1)...(131) wild-type rat intestinal fatty acid binding protein
B17: 115T3, 72A (protein, listed as Rattus norvegicus)
chain: B1 chain with K115T
modifications: PEPTIDE (1)...(131) wild-type rat intestinal fatty acid binding protein
B18: 38S, 72A (protein, listed as Rattus norvegicus)
chain: B1 chain with L38S, K115Q
modifications: PEPTIDE (1)...(131) wild-type rat intestinal fatty acid binding protein
B19: 38Y, 72A (protein, listed as Rattus norvegicus)
chain: B1 chain with L38Y, K115Q
modifications: PEPTIDE (1)...(131) wild-type rat intestinal fatty acid binding protein
B20: 21Y, 72A (protein, listed as Rattus norvegicus)
chain: B1 chain with M21Y, K115Q
modifications: PEPTIDE (1)...(131) wild-type rat intestinal fatty acid binding protein
B21: 14M 72M 117A (protein, listed as Rattus norvegicus)
chain: B1 chain with Y14M, A72M, K115Q, Y117A
modifications: PEPTIDE (1)...(131) wild-type rat intestinal fatty acid binding protein
B22: 38Q, 72A (protein, listed as Rattus norvegicus)
chain: B1 chain with L38Q, K115Q
modifications: PEPTIDE (1)...(131) wild-type rat intestinal fatty acid binding protein
B23: 38M, 72A (protein, listed as Rattus norvegicus)
chain: B1 chain with L38M, K115Q
modifications: PEPTIDE (1)...(131) wild-type rat intestinal fatty acid binding protein

assay: Probe fluorescence ratio response to arachidonic acid relative to ADIFAB2; assay type: binding; details: arachidonic acid; response relative to ADIFAB2
Procedure, shortened: (§1)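 Each fatty acid's response was expressed relative to ADIFAB2, the rI-FABP-L72A probe, as ΔR/ΔRreference. ΔR is the change in the background-corrected two-wavelength intensity ratio R=Fλ1/Fλ2 from its analyte-free baseline R0. Emission was read near about 420-480 nm for unbound and about 495-580 nm for FFA-bound probe.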

Going from B1 to B2, the “DR/DR AA” value falls from 1.26 to −0.17.

Compared with B4, B5 is higher in “DR/DR AA” value: 1.40 for the first, 2.001 for the second.

Compared with B6, B7 is lower in “DR/DR AA” value: 1.42 for the first, 0.14 for the second.

Compared with B8, B9 is lower in “DR/DR AA” value: 1.548 for the first, −0.17 for the second.

Going from B10 to B11, the “DR/DR AA” value falls from 1.598 to 1.26.

Going from B12 to B13, the “DR/DR AA” value falls from 1.55 to 0.92.

Compared with B14, B16 is higher in “DR/DR AA” value: 0.84 for the first, 1.024 for the second.

Compared with B17, B18 is higher in “DR/DR AA” value: 0.57 for the first, 1.175 for the second.

Compared with B19, B20 is higher in “DR/DR AA” value: 2.081 for the first, 2.378 for the second.

First: B21
Second: B22
The “DR/DR AA” value of the first is lower: 1.649 for the first, 1.976 for the second.

In the case of B23, the “DR/DR AA” value is reported as 1.850.

With B3 the “DR/DR AA” value was 0.41 and 0.352.
With B15 the “DR/DR AA” value was 1.27 and 1.332.

assay: Probe fluorescence ratio response to linolenic acid relative to ADIFAB2; assay type: binding; details: response relative to ADIFAB2
Procedure, shortened: as §1

Going from B1 to B2, the “DR/DR LNA” value rises from 1.32 to 1.35.

Compared with B4, B5 is higher in “DR/DR LNA” value: 1.43 for the first, 2.033 for the second.

First: B6
Second: B7
The “DR/DR LNA” value of the first is higher: 1.27 for the first, 0.12 for the second.

Going from B8 to B9, the “DR/DR LNA” value falls from 1.581 to −0.13.

First: B10
Second: B11
The “DR/DR LNA” value of the first is higher: 1.639 for the first, 1.29 for the second.

Going from B12 to B13, the “DR/DR LNA” value falls from 1.51 to 0.73.

Compared with B14, B16 is higher in “DR/DR LNA” value: 0.93 for the first, 1.494 for the second.

Compared with B17, B18 is higher in “DR/DR LNA” value: 0.54 for the first, 1.295 for the second.

Going from B19 to B20, the “DR/DR LNA” value falls from 1.884 to 1.881.

Compared with B21, B22 is lower in “DR/DR LNA” value: 2.031 for the first, 1.986 for the second.

For B23, the “DR/DR LNA” value was 1.697.

In the case of B3, the “DR/DR LNA” value is reported as 0.44 and 0.407.
For B15, the “DR/DR LNA” value was 0.62 and 0.631.

assay: Probe fluorescence ratio response to linoleic acid relative to ADIFAB2; assay type: binding; details: response relative to ADIFAB2
Procedure, shortened: as §1

First: B1
Second: B2
The “DR/DR LA” value of the first is lower: 1.23 for the first, 1.37 for the second.

Going from B4 to B5, the “DR/DR LA” value rises from 1.45 to 1.955.

First: B6
Second: B7
The “DR/DR LA” value of the first is higher: 1.38 for the first, 0.12 for the second.

Going from B8 to B9, the “DR/DR LA” value falls from 1.572 to −0.19.

First: B10
Second: B11
The “DR/DR LA” value of the first is higher: 1.577 for the first, 1.24 for the second.

First: B12
Second: B13
The “DR/DR LA” value of the first is higher: 1.51 for the first, 0.78 for the second.

First: B14
Second: B16
The “DR/DR LA” value of the first is lower: 0.87 for the first, 1.465 for the second.

Compared with B17, B18 is higher in “DR/DR LA” value: 0.45 for the first, 1.286 for the second.

First: B19
Second: B20
The “DR/DR LA” value of the first is lower: 1.818 for the first, 2.015 for the second.

Compared with B21, B22 is lower in “DR/DR LA” value: 1.956 for the first, 1.936 for the second.

For B23, the “DR/DR LA” value was 1.805.

For B3, the “DR/DR LA” value was 0.44 and 0.380.
With B15 the “DR/DR LA” value was 1.01 and 1.045.

assay: Probe fluorescence ratio response to oleic acid relative to ADIFAB2; assay type: binding; details: response relative to ADIFAB2
Procedure, shortened: as §1

First: B1
Second: B2
The “DR/DR OA” value of the first is lower: 1.25 for the first, 1.26 for the second.

Compared with B4, B5 is higher in “DR/DR OA” value: 1.36 for the first, 1.912 for the second.

Going from B6 to B7, the “DR/DR OA” value falls from 1.23 to 0.11.

First: B8
Second: B9
The “DR/DR OA” value of the first is higher: 1.448 for the first, −0.24 for the second.

Compared with B10, B11 is lower in “DR/DR OA” value: 1.547 for the first, 1.25 for the second.

First: B12
Second: B13
The “DR/DR OA” value of the first is higher: 1.41 for the first, 0.71 for the second.

Compared with B14, B16 is higher in “DR/DR OA” value: 0.91 for the first, 1.313 for the second.

Compared with B17, B18 is higher in “DR/DR OA” value: 0.46 for the first, 1.235 for the second.

First: B19
Second: B20
The “DR/DR OA” value of the first is lower: 1.717 for the first, 1.982 for the second.

Compared with B21, B22 is higher in “DR/DR OA” value: 1.054 for the first, 1.842 for the second.

With B23 the “DR/DR OA” value was 1.630.

With B3 the “DR/DR OA” value was 0.35 and 0.294.
In the case of B15, the “DR/DR OA” value is reported as 0.93 and 0.947.

assay: Probe fluorescence ratio response to palmitic acid relative to ADIFAB2; assay type: binding; details: response relative to ADIFAB2
Procedure, shortened: as §1

Compared with B1, B2 is lower in “DR/DR PA” value: 1.18 for the first, 0.70 for the second.

Compared with B4, B5 is higher in “DR/DR PA” value: 0.70 for the first, 1.416 for the second.

Going from B6 to B7, the “DR/DR PA” value falls from 0.73 to 0.09.

First: B8
Second: B9
The “DR/DR PA” value of the first is higher: 1.247 for the first, −0.12 for the second.

Compared with B10, B11 is higher in “DR/DR PA” value: 1.022 for the first, 1.15 for the second.

First: B12
Second: B13
The “DR/DR PA” value of the first is higher: 0.77 for the first, 0.56 for the second.

Compared with B14, B16 is higher in “DR/DR PA” value: 0.85 for the first, 1.039 for the second.

Compared with B17, B18 is higher in “DR/DR PA” value: 0.49 for the first, 0.724 for the second.

Going from B19 to B20, the “DR/DR PA” value falls from 1.518 to 1.094.

Compared with B21, B22 is higher in “DR/DR PA” value: 0.870 for the first, 1.551 for the second.

With B23 the “DR/DR PA” value was 1.131.

In the case of B3, the “DR/DR PA” value is reported as 0.17 and 0.142.
With B15 the “DR/DR PA” value was 0.32 and 0.331.
